Data set [1] has as its system N[C@@H](CCSC[C@@H](O)C(=O)[C@@H](O)CO)C(=O)O. As to the kind of experiment: homocysteine release, DTNB assay. The conditions noted are these: Co(II) enzyme. In kind it is biochemical, Vibrio campbellii.
Another data set deals with Cys83 (UniProt position 83, ISPMGCRTGFY). The conditions noted are these: free enzyme (no substrate or ligand bound); metal form not stated; cited from earlier work.
Data set [2] concerns N[C@@H](CCSC[C@@H](O)C(=O)[C@@H](O)CO)C(=O)O. As to the kind of experiment: purified protein. As to conditions: Co(II) enzyme.
Substrate in data set [3]: N[C@@H](CCSC[C@@H](O)C(=O)[C@@H](O)CO)C(=O)O
As to the kind of experiment: homocysteine release, DTNB assay. The conditions noted are these: Co(II) enzyme. Format: biochemical, Bacillus subtilis.

As for “VhLuxS (Co-VhLuxS) (Vibrio campbellii ATCC BAA-1116; E57A)”, in data set [1], the Km (commonly the concentration of substrate that gives half-maximal velocity) stood at 98 ± 13 µM; the kcat (in general, the maximal rate divided by the concentration of active sites) worked out at 0.012 ± 0.001 s⁻¹; the specificity constant (kcat/Km) (as a rule, the turnover number divided by the Michaelis constant) is 120 M⁻¹ s⁻¹.
On to “VhLuxS (Co-VhLuxS) (Vibrio campbellii ATCC BAA-1116; H11Q)”, for which, in data set [1], the Km stood at 520 ± 60 µM, the kcat is 0.024 ± 0.002 s⁻¹ and the kcat/Km stood at 47 M⁻¹ s⁻¹.
With “VhLuxS (Co-VhLuxS) (Vibrio campbellii ATCC BAA-1116; R39M)”, in data set [1], the Km was found to be 150 ± 20 µM, the kcat was 0.016 ± 0.001 s⁻¹ and the kcat/Km was 110 M⁻¹ s⁻¹.
Regarding “VhLuxS (Co-VhLuxS) (Vibrio campbellii ATCC BAA-1116; S6A)”, in data set [1], the Km stood at 40 ± 3 µM, the kcat was found to be 0.14 ± 0.01 s⁻¹ and the kcat/Km amounted to 3400 M⁻¹ s⁻¹.
For “S-ribosylhomocysteinase (LuxS), EcLuxS (Escherichia coli)”, the pKa (commonly the negative logarithm of the acid dissociation constant) with Cys83 is on record as less than 6.
Consider “VhLuxS (Co-VhLuxS) (Vibrio campbellii ATCC BAA-1116; E57D)”, for which, in data set [1], the Michaelis-Menten constant (Km) amounted to 730 ± 120 µM, the catalytic constant (kcat) was determined as 0.026 ± 0.003 s⁻¹ and the kcat/Km stood at 36 M⁻¹ s⁻¹.
In the case of “VhLuxS (Co-VhLuxS) (Vibrio campbellii ATCC BAA-1116; C83A)”, in data set [1], the Km amounted to 700 ± 120 µM, the kcat was determined as 0.022 ± 0.002 s⁻¹ and the kcat/Km was determined as 31 M⁻¹ s⁻¹.
Turning to “VhLuxS (Co-VhLuxS) (Vibrio campbellii ATCC BAA-1116)”, in data set [2], the Km is 27 ± 2 µM, the kcat came out at 0.64 ± 0.02 s⁻¹ and the kcat/Km amounted to 24000 M⁻¹ s⁻¹.

B1: BsLuxS (Co-BsLuxS) (Bacillus subtilis subsp. subtilis str. 168) (protein)
chain: MPSVESFELDHNAVVAPYVRHCGVHKVGTDGVVNKFDIRFCQPNKQAMKPDTIHTLEHLLAFTIRSHAEKYDHFDIIDISPMGCQTGYYLVVSGEPTSAEIVDLLEDTMKEAVEITEIPAANEKQCGQAKLHDLEGAKRLMRFWLSQDKEELLKVFG
As to B1, in data set [3], the Km was 3.6 ± 0.1 µM, the kcat came out at 0.038 ± 0.001 s⁻¹ and the kcat/Km worked out at 11000 M⁻¹ s⁻¹.

These data come from paper PMC2654206.
